# Data from the DeepSol protein solubility set.
# Assay: soluble on expression in E. coli; label from the status in PepcDB or PDB records
row,Sequence,soluble on expression in E. coli
1,MEKSSSNFIQNGKRDHGGKLRQYNYKLEEAEYRYFTEERLFYRRRNPVEKIAQRIPKPQIEGTFTWSDELRCNYDGNTQFLPVEALEGCLPLEKLNQHLKPGFRLEVVVRPSLDPSITTKSPEIRWFGEVTAVCGFYVAIKFVGELNRRPCWFHMLSEDIFDIGSGLKQDPAMKWLQYRPLSLLKPMQCPKFWRRGSTPAPPVPRPTEEILDEFQAELHENRISEPKIFDQLRHLAHRPSRFRLNQRVELLNYLEPTEIRVARILRILGRRLMVMVTAQDYPEDLPSVEAKDRQVQHENVEFWVDESSFFLFPVGFAMINGLRTKATEGYLEHSRRIAEGSGTEKLNLLKVGQKFELLDPLSDLRQSFCVATIRKICKTPGFLIISPDETESDDESFPIHIDNHFMHPVGYAEKFGIKLDRLAGTEPGKFKWEGYLKEKQAEKIPDEMLRPLPSKERRHMFEFGRVLEAVGQNETYWISPASVEEVHGRTVLIEFQGWDSEFSELYDMDSHDLLPAGWCEFFNFKLRHPVLPVNDPNAENGEYD,not soluble
2,MEKVGEDEEKTIEEANNSTEETKSDKEEERIKGTIADQVDPVDSTEEGSTGPSNSHTVVSKDHDFSESDMEDEEQVLEFFRRNHGFSPEVTKRNNFPYVNNSERMVLQFQEDTSAETEQTNEMFHSLNDSNEILEGTKSSSASDEDTEDSSSNSDLDSSLSRYYFDGSLPVSAHVEEFETHQDESLVPKDENQVCNPNWWGMI,not soluble
3,MELAVHDATEDGAGYATAASSWVVVEPEFVVDVTDIRSFVQCPRLYYLNKLSGLPLKYPVTKGTIVHEVFGDLLRGRDLEASVAQRVDEAGLELGLLGRSRAEVEADVRDNASAIEGWLQQGRLTDEDEWRSEYTLVSERFGIKGRCDAIRRGMPVELKTGKNTNREPRFHDKVQAACYALMLDEHGVPADTGTLLYTKNAAVDRSEASGDLSPAKEFSIGRGFLEFVVRERNHLAALEASDGPPTGYEADAKCDYCFEQDTCMVVSGRLDQESKAGRIGDPVPAEERAYFDELYDAIEAERGAIHDEYRKLWEQSPDERAADDRAVVGLSPAEQTELPDGRWRLTATRPGSAASKIREGDRVLASDGDPVAGRAEMARVERLDADRVEVTTDEPVSLCRLDVYPSELSVDRMLTALHDAVLKSDQRRTDLLFDRASPRFEGGDHDLIPNNDAQNAAVNRALNAEDFALVHGPPGTGKTYTIATLVQAFVARGDRVLVSAFTNRAVDNALDALRQQGHEDIVRVGTETGVRADMQDLRLDRSGDPGERAAALRSAPVVAATTATCGSRILRELEFDVVLVDEASQLTEPDTLAAINRGARFVLVGDHEQLPPVVRSGGRLSKSLFERLHETYPEASVMLDQQYRMSQRIQAFSSREFYDGQLRPASSEVAGQRLTDVGVDPGGAVHGGVTFYDVPGTDDAHVDPAEADRVADVVTAYVDAGLDPGEIGVIAPFRAQVAEIGRRTPAGVAVDTVDRFQGSSKEVIVVSFVARGTLEGPIFEDHRRVNVALSRAKKSLVLVGDERALRSEPLYDRMIDWADMELEHHHHHH,not soluble
4,MELDDALDELSDSLGQRQPDPDENKPLDDKVKEKIKAEHSEKLGERDDTIPPEYRHLLDNDGKDKPEKPLTKNTEKPGQDQDPIDALSEDLDSCP,soluble
5,MELGLYTFADVNPNPADGRGPEGARRLRELLEEIELADQVGLDVFGLGEHHRPDYVVSSPSTVLAAAAVKTKNIRLTSAVSVLSSDDPVRVFQQFSTVDLLSNGRAEIMAGRGSFIESYPLFGYDLEDYDVLFAEKLDLLLALREQEVVTWSGTKHPAINGRGVYPRPLQERLPVWIAVGGTPQSVARAGAMGLPVALAIIGGEYRRFAPLFDLYHEAARRAGQEKTKLRTSINVHGFIADTTDKAADQFYGPQAEVMNRIGRERGWGPTNRAHFDAARGPEGNLFLGEPELVAEKIIKAHGVFKNDRFLLQMAIGLMPHDQIMRGIELYGTKVAPLVRKELTGSADPVKATA,soluble
6,MELINKDTLQIKEFISSLDSMLDGIESIVKHYKPHLNGERFLSNNEVSKKLNVSLRTLQEWRDTGLIPFIQIKGKIIYRQSDIDKLLQKHYFEGWKE,not soluble
7,MELLPQGQRNNTQVTFEDQQKINEFSKLIMRKDAIAQELSLQREEKEYLDDVSLEIELIDEDEPVQYKVGDLFIFMKQSKVTAQLEKDAERLDNKIETLEDKQRDIDSRLDALKAILYAKFGDNINLER,not soluble
8,MELQQLPQHVRDAFHAPNTPPRQLGVAWDYGWRVGNVAFSQVIHPDRSAWSARVRDKLQPQGLRVVRPLKSTDGRYINAGWRANSFEEGTLARRVDETVVAALRLDTALADIDVPDSFSEPDSHDLFSLADHSAWAPEPMVALGVTSDAEAVFLNPAQLTAQRLLPKIVLLLRDIDAPIQVTHADMFATTIYSGNQMPVVTDLVGVARPYGYTAAVCIVDALLAGAVDEGIIDRFSHIQHRDQLLLRALVYRIAVHALHPESTSNTGTNLEWVSQTIMSRASVTL,soluble
9,MELRVGNRYRLGRKIGSGSFGDIYLGTDIAAGEEVAIKLECVKTKHPQLHIESKIYKMMQGGVGIPTIRWCGAEGDYNVMVMELLGPSLEDLFNFCSRKFSLKTVLLLADQMISRIEYIHSKNFIHRDVKPDNFLMGLGKKGNLVYIIDFGLAKKYRDARTHQHIPYRENKNLTGTARYASINTHLGIEQSRRDDLESLGYVLMYFNLGSLPWQGLKAATKRQKYERISEKKMSTPIEVLCKGYPSEFATYLNFCRSLRFDDKPDYSYLRQLFRNLFHRQGFSYDYVFDWNMLKFGASRAADDAERERRDREERLRHSRNPATRGLPSTASGRLRGTQEVAPPTPLTPTSHTANTSPRPVSGMERERKVSMRLHRGAPVNISSSDLTGRQDTSRMSTSQIPGRVASSGLQSVVHR,not soluble
10,MELSRGASAPDPDDVRPLKPCLLRRNHSRDQHGVAASSLEELRSKACELLAIDKSLTPITLVLAEDGTIVDDDDYFLCLPSNTKFVALACNEKWTYNDSDGGTAWVSQESFEADEPDSRAGVKWKNVARQLKEDLSSIILLSEEDLQALIDIPCAELAQELCQSCATVQGLQSTLQQVLDQREEARQSKQLLELYLQALEKEGNILSNQKESKAALSEELDAVDTGVGREMASEVLLRSQILTTLKEKPAPELSLSSQDLESVSKEDPKALAVALSWDIRKAETVQQACTTELALRLQQVQSLHSLRNLSARRSPLPGEPQRPKRAKRDSS,soluble
11,MELVHGISTHFIQSKKFKTNKITVRFTAPLSLDTIAGHMLSASMLETANQMYPTSQDLRRHLASLYGTDMSTNCFRRGQSHIIELTFTYVRDEFLSRKNVLTSQILELVKETLFSPVVVDNGFDPALFEIEKKQLLASLAADMDDSFYFAHKELDKLFFHDERLQLEYSDLRNRILAETPQSSYSCFQEFLANDRIDFFFLGDFNEVEIQNVLESFGFKGRKGDVKVQYCQPYSNILQEGMVRKNVGQSILELGYHYCSKYGDEQHLPMIVMNGLLGGFAHSKLFTNVRENAGLAYTISSELDLFSGFLRMYAGINRENRNQARKMMNNQLLDLKKGYFTEFELNQTKEMIRWSLLLSQDNQSSLIERAYQNALFGKSSADFKSWIAKLEQIDKDAICRVANNVKLQAIYFMEGIE,not soluble
12,MELYDTEEQQVEAIKDWWKENGKAVIFGAVIGLGGLFGWRYYQDSVVAAQEAASQSYSKAMDALQAKGIESEGTIQTFIDANKETEYAVLAAMQLAKAQVDAGQLDEALAQLEWAKGATKDAALKPLLTFRVARLQAEQGQFDDALTQLTSIQEKSWAGRVAELRGDILMRKGDSAAAYAAYTEAQQAEDASQTLQMKLDDLAK,not soluble
13,MENKEKIFNAQHPLSNVNARSITYRSGGKSPKSPRRVDEENKTDEELGDALGISHRCDECDEMMKFETWVERQDAILECGHGYCKKCIPNIKKDAHTLTKCPVVAVKCRIPNWYQTGQAAKPSHRKSEAARKEYSTKAKLWNFEYKGRPLVVSLRRDATYGDLETSLSMLLNIDLKTNMILIHLPHSYNGADVNYFMKADDSLTNGPYEKDTKLSHLRHPKIAALSLEVTEKKTPSSETPSKENPKSPGPLDSNK,not soluble
14,MENLKKYLEVAKIAALAGGQVLKENFGKVKKENIEEKGEKDFVSYVDKTSEERIKEVILKFFPDHEVVGEEMGAEGSGSEYRWFIDPLDGTKNYINGFPIFAVSVGLVKGEEPIVGAVYLPYFDKLYWGAKGLGAYVNGKRIKVKDNESLKHAGVVYGFPSRSRRDISIYLNIFKDVFYEVGSMRRPGAAAVDLCMVAEGIFDGMMEFEMKPWDITAGLVILKEAGGVYTLVGEPFGVSDIIAGNKALHDFILQVAKKYMEVAV,soluble
15,MENMIVIMAGGRSSRMGAEKPILKVNGKPMILRVYEESTKVGETLVAISKNTPKTRELCIKEGIPLIETPGEGYVEDVRYLLKELGSFVSVSADLPFVKACDIAEVKKAFDGKTSLTGVLPLSKVPTDLRPVVYKGYVIVGLNGVGFEGEKFYELSNPLLALNVNTPEELKLANRIAKLIGLEHHHHHH,not soluble
16,MENRYSVHPEQVKRFTTEELRSHFLMDSLFTENKLTMYYSHEDRVVIGGAAPGQSELKLDAGDFLKTDFFLERREIGIINVGQPGAVRVGDDEYVLQTKDFLYIGMGNQDVSFSSLNGEKAKFYFVSACAHKSYPTQKAALSELTPDRLGDDAASNVRSLYKVIHQDGIKSCQLMMGITMLDQNNNWNTMPAHVHDRRMEAYLYLDLEKDSKVFHFMGQPDETRHLVVGNEQAVLSPAWSIHSGAGTSNYSFVWAMAGENYTFTDMDLIPMDGLK,not soluble
17,MENWYPCIICGIARYGHDVIATPRLTSDARVNQWLNLIGKPALNRILATNKNPTLNTFICIEHFEPEELIEPKKRRMKPIKTTRREMAIYENYFRDHGYFETQKSDVNRKKSMKLTSISCSQCSESVERDGKFAKIDMVDHAKLHMELGDCRCEKHKKIERIDRIDGENSDFQCSECAFILNAELEAVKEKAEFCFPMFQFEKSKFSNSTLEPRMKPEYIESRPFWNSEEYDPVFLDSDVKFDLIEDFEPPEPEPEPEQVDTELVKLEPIDGDYEHMEGCFSGFEQEESEQPSTSSAPRKLVQQRDRLLENLYQSNRHPSMEDINSLLDFSGDQRSIEAIFGFFERRRNDDNEMCTGDDACSSLRRYLEMELHPHGPLLEPPEIRCRMIKMFEKHWAKYRYVFRDLHSYMFSDALGLPPKYIRQRFEHFKERKNQQQKKQQEEADRAFRERHKPPKPHKPKPKSQYSKFEDETMEKAYMRTVKMNPSSYESRDLLESISISLRMSLIKVHEWFNNRKFVDSIIDQTWRTFSVNDEKRLHSTFLQNPQPTDEQYCYLAKELRAPVKEVMNWFKLKQMNEEREEEALKFEYKLDALTQESIDLFTTIVDGTTVVSVAKRRLLALELDVPYETLGRWIFYYRNREEKSRKSPKLEDDDDPPPRLAKMPRLEMNEPDNEEDIKLEPLDS,not soluble
18,MEPGTYELRGTVHDETFNTTVWTPYNFEGFYYSIDENVSTESLTLTEEISGRSIDDEALVYSTSPALVKFEQESWGSYQVIGFMAEKYFAGYPANTFGNSRSVSVLSDDILAKVLIDDDHKRSMFTGSSIALENGYSLKAAEVDVNGNRVLLELYRDGELVDSGITSSNGDYIYEADIGGAEDVPMIAAHISTVFRSRETDAVFIEGIFQVSDDYLELSQGDSFGKMEISTISSSGITMKNEDSISLSRGNTISLMGNVSFKVADSNVLRFYPFVEVKSAPQDQLRIETPDVFVVGEAAEISVTARDAAVSDVEIRLGNQSIGTTGDDGILAYTPTLEGDFTLYANKAGYLSGSKDVDIVLEHHHHHH,soluble
19,MEPPLILIVEDEKDIARFIELELQAEGYRTEVAHDGITGLSKFREVSPNLVILDLMLPVMDGIEVAKRIRKTSNVPILILTAKDRVEDKVAGLDAGADDYLVKPFSIEELLARVRAHLRRVTPAITGEIRVADLIINLEGREVFRGNRRIELSNKEFELLELLAKNPGKVFSRYEIEEKVWPGYQGGSNVVDVYIGYLRKKLEAGGERRLIHTVRGVGYVLRED,soluble
